{
  "source": "paper PMC7865324",
  "target": "citrate synthase (CS) from porcine heart (porcine) (UniProt P00889)",
  "sequence (P00889 28-464)": "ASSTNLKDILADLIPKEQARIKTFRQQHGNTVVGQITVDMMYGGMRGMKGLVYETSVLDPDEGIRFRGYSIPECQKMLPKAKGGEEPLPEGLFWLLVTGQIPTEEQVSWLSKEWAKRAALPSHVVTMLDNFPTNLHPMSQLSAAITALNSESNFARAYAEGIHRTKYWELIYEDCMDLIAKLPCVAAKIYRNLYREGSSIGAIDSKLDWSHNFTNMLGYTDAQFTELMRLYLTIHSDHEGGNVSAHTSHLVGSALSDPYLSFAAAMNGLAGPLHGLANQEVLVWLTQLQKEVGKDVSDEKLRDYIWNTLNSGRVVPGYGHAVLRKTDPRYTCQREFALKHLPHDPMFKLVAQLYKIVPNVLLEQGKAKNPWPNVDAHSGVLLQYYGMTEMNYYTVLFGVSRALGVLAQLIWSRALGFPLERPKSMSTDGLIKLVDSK",
  "data": [
    {"substance": "recombinant ZnJ6 (Cre06.g251716.t1.2) fused to the streptavidin-binding peptide (SBP) tag (natural protein)", "values": [
      {"measurement": "citrate synthase thermal aggregation assay (OD360, 42 °C, 1 h): percent of CS kept soluble, ZnJ6:CS 0.1:1 to 10:1", "value": 86, "unit": "%"}
    ]}
  ]
}
